Laboratory results reported in publication PMC11543921 (iScience, 2024).

Biological target: the molecule itself
Assay: MALDI-TOF MS

B1: human recombinant glutamate-oxaloacetate transaminase (enzyme, UniProt P17174 1-413, looked up)
chain: MAPPSVFAEVPQAQPVLVFKLTADFREDPDPRKVNLGVGAYRTDDCHPWVLPVVKKVEQKIANDNSLNHEYLPILGLAEFRSCASRLALGDDSPALKEKRVGGVQSLGGTGALRIGADFLARWYNGTNNKNTPVYVSSPTWENHNAVFSAAGFKDIRSYRYWDAEKRGLDLQGFLNDLENAPEFSIVVLHACAHNPTGIDPTPEQWKQIASVMKHRFLFPFFDSAYQGFASGNLERDAWAIRYFVSEGFEFFCAQSFSKNFGLYNERVGNLTVVGKEPESILQVLSQMEKIVRITWSNPPAQGARIVASTLSNPELFEEWTGNVKTMADRILTMRSELRARLEALKTPGTWNHITDQIGMFSFTGLNPKQVEYLVNEKHIYLLPSGRINVSGLTTKNLDYVATSIHEAVTKIQ
- stoichiometry N: 2
